Experimental data: patent US20240102068A1, “C-GLYCOSYLTRANSFERASE VARIANTS AND USE THEREOF” (KOREA ADVANCED INSTITUTE OF SCIENCE AND TECHNOLOGY, priority 2021, published 2024)
Substitutions are numbered along the chain they refer to. Names may count otherwise.

Columns and labels:
[1] = molecular target: T1, Gentiana triflora GtCGT (GtUF6CGT1) variant V93Q/Y193F, SEQ ID NO: 61 (Gentiana triflora, UniProt A0A0B6VIJ5, V93Q/Y193F); assay: enzyme kinetics of purified N-terminal 6xHis GtCGT V93Q/Y193F, FK to dcII, UDP-Glo Glycosyltransferase Assay; assay type: biochemical
T1 sequence (A0A0B6VIJ5 1-477 V93Q/Y193F): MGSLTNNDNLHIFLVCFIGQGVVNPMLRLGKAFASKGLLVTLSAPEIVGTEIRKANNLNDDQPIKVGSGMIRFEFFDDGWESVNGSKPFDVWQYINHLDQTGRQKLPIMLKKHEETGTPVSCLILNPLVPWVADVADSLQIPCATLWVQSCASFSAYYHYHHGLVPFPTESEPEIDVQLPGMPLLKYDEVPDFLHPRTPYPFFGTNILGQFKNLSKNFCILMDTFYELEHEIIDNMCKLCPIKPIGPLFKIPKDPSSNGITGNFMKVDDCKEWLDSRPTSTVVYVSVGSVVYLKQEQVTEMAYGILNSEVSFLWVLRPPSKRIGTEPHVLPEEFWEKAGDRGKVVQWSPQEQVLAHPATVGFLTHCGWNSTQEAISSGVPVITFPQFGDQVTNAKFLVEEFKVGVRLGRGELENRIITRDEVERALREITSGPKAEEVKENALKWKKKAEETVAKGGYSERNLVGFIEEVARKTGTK
Method: Each plasmid was constructed by PCR amplification of pCDF-GtCGT and pCDF-GtCGTmut using GtCGT_N_His_IV_F and GtCGT_N_His_IV_R primers, followed by blunt-end ligation through DpnI treatment and T4 PNK and T4 ligase treatment. Each of the two plasmids thus constructed was transformed into the E. coli BL21(DE3) strain, followed by seed culture in a test tube containing 10 mL of LB and then culture at 37° C. until OD600 reached 0.8 in a flask containing 500 mL of LB. After treatment with 1 mM IPTG for enzyme expression, additional culture was carried out at 20° C. for 16 hours, and cells were collected by centrifugation and then resuspended in 30 mL of lysis buffer (50 mM NaH2PO4, 0.3 M NaCl, 10 mM imidazole, pH 7.5). The cells were disrupted by ultrasonication and then centrifuged at 10,000 rpm and 4° C. for 40 minutes to obtain a supernatant containing water-soluble proteins. […]
Here, a UDP-Glo Glycosyltransferase Assay Kit (Promega) was used to determine the extent of reaction. Since this kit enables measurement of free UDP generated as a reaction byproduct by luminescence, 200 μL of an enzyme reaction solution containing 0.1 μM enzyme and various concentrations of FK (50 mM HEPES, 0.1 mM UDP-glucose, 5 mM MgCl2, pH 7.5) was allowed to react at 25° C. for 1 hour, 25 μL thereof was taken out, and the amount of emitted light was measured using the kit.

[2] = substrate: Cc1c(C(=O)O)c(O)cc2c1C(=O)c1c(O)cc(O)cc1C2=O; assay: enzyme kinetics of DnrF; assay type: biochemical, Streptomyces peucetius; settings: other: means ± SD, n = 3
[3] = substrate: Cc1c(C(=O)O)c(O)cc2c1C(=O)c1c(O)cc(O)cc1C2=O; assay: enzyme kinetics of DnrF P217K; assay type: biochemical, Streptomyces peucetius; settings: other: means ± SD, n = 3

Cc1c(C(=O)O)c(O)cc2c1C(=O)c1c(O)cc(O)cc1C2=O [FK, flavokermesic acid]
KM value decreased compared to GtCGT ([1]; decrease vs wild-type GtCGT): 19.5% | Vmax value increased compared to GtCGT ([1]; increase vs wild-type GtCGT): 18.2%

B1: Streptomyces peucetius DnrF (aklavinone 12-hydroxylase), wild type, SEQ ID NO: 2 (Streptomyces peucetius) (protein)
chain: MALTKPDVDVLVVGGGLGGLSTALFLARRGARVLLVERHASTSVLPKAAGQNPRTMELFRFGGVADEILATDDIRGAQGDFTIKVVERVGGRVLHSFAESFEELVGATEQCTPMPWALAPQDRVEPVLVAHAAKHGAEIRFATELTSFQAGDDGVTARLRDLGTGAESTVSARYLVAADGPRSAIRESLGITRHGHGTLAHFMGVIFEADLTAVVPPGSTGWYYLQHPDFTGTFGPTDRPNRHTFYVRYDPERGERPEDYTPQRCTELIRLAVDAPGLVPDILDIQAWDMAAYIADRWREGPVLLVGDAAKVTPPTGGMGGNTAIGDGFDVAWKLAAVLRGEAGERLLDSYGAERSLVSRLVVDESLAIYAQRMAPHLLGSVPEERGTAQVVLGFRYRSTAVAAEDDDPEPTEDPRRPSGRPGFRAPHVWIEQDGTRRSTVELFGDCWVLLAAPEGGAWGQAAARAAADLGVRLDVHLVGRDVAAPSGELTRTYGIGRAGASLVRPDGVVAWRTAVAPGAEAQDQLSTLLTRLLAR
notes: purification details not in the excerpts
Km [2]: 56.75 ± 4.68 µM | Vmax [2]: 0.99 µM/min | Vmax/Km [2]: 0.0175 min⁻¹

B2: Streptomyces peucetius DnrF (aklavinone 12-hydroxylase, SEQ ID NO: 2) variant P217K (Streptomyces peucetius; P217K) (protein)
chain: B1 chain with M1V, P217K
notes: as for B1
Km [3]: 43.31 ± 2.64 µM | Vmax [3]: 1.01 µM/min | Vmax/Km [3]: 0.0234 min⁻¹
